Data set [1] can be described thus: immunoblot, HEK293T. Particulars: glycan lost; control: FOXK1 WT, PFOS-treated. In general terms: Immunoblotting shows a protein as a band on a membrane.
The nature of data set [2]: cycloheximide chase, PES1 immunoblot, HEK293T. Particulars: glycan lost; control: FOXK1 WT.
Data set [3] can be described thus: PES1 IP, HA-Ub blot, MG132, HEK293T. Particulars: glycan lost; control: FOXK1 WT, PFOS-treated.

B1: forkhead box k1 (FOXK1): FOXK1 T573A (protein)
parent chain: MAEVGEDSGARALLALRSAPCSPVLCAAAAAAAFPATTSPPPPAQPPPGPPALPAEPGPGPVPSTVATATTTAPALVAAAAASVRQSPGPALARLEGREFEFLMRQPSVTIGRNSSQGSVDLSMGLSSFISRRHLQLSFQEPHFYLRCLGKNGVFVDGAFQRRGAPALQLPQQCTFRFPSTAIKIQFTSLYHKEEAPASPLRPLYPQISPLKIHIPEPDLRSLVSPIPSPTGTISVPNSCPASPRGAGSSSYRFVQNVTSDLQLAAEFAAKAASEQQADASGGDSPKDESKPPYSYAQLIVQAISSAQDRQLTLSGIYAHITKHYPYYRTADKGWQNSIRHNLSLNRYFIKVPRSQEEPGKGSFWRIDPASEAKLVEQAFRKRRQRGVSCFRTPFGPLSSRSAPASPTHPGLMSPRSSGLQTPECLSREGSPIPHDPDLGSKLASVPEYRYSQSAPGSPVSAQPVIMAVPPRPSNLVAKPVAYMPASIVTSQQPSGHAIHVVQQAPTVTMVRVVTTSANSANGYILASQGSTGTSHDTAGTAVLDLGNEARGLEEKPTIAFATIPAASRVIQTVASQMAPGVPGHTVTILQPATPVTIGQHHLPVRAVTQNGKHAVPTNSLTGNAYALSSPLQLLAAQASSSTPVVITRVCEVGPEEPAAAVSVAANAAPTPAASTTTSASSSGEPEVKRSRVEEPGGTATTQPTAMAATGPQGPGTGE
On to B1, for which, in data set [1], the “other: PES1 protein level” value was “decreases”. Further, the “other: PES1 degradation” value in data set [2] is on record as “increases”. Besides, the “other: PES1 ubiquitination” value in data set [3] was “increases”.

(Values after PMC12948240.)
